Results on four molecules are retold here after article PMC8567202, “Phosphoinositide-binding activity of Smad2 is essential for its function in TGF-β signaling” (The Journal of Biological Chemistry, 2021).

In the data set the test system is HeLa cells. Nature of the data set: TIRF imaging of PM localization of EGFP-Smad2. Type of data set: cell-based. Conditions: for PM localization after TGF-β stimulation: HeLa cells with endogenous Smad2 suppressed. On the procedure: Figure 4 Quantitative imaging analyses of spatiotemporal dynamics of Smad2.A, TIRF images of mouse EGFP-Smad2-WT transfected into HeLa cells whose endogenous Smad2 is suppressed by siRNA. Images were taken before and 5 min after TGF-β stimulation (10 ng/ml) with and without PI(4,5)P2 depletion. A pseudo-coloring scheme was used with orange and blue representing the highest and the lowest intensity, respectively. B, kinetics of TGF-β stimulated (10 ng/ml) PM localization of EGFP-Smad2-WT (blue), -K420A (green), and -W422A (orange) transfected into HeLa cells the endogenous Smad2 of which was suppressed by siRNA. For EGFP-Smad2-WT, the effect of PI(4,5)P2 depletion (black) and TβRI inhibition by SB-431542 (10 μM for 36 h) (red) were measured. Data points indicate average ±S.D. (n = 10 cells). C, spatially resolved PM PI(4,5)P2 concentration ([PI(4,5)P2]) profiles calculated from two-channel cross-sectional images of HeLa cells (before and 5 min after 10 ng/ml TGF-β stimulation and after PI(4,5)P2 depletion). Each cell is a representative of more than ten cells analyzed. Spatially averaged [PI(4,5)P2] values for each cell type are shown. The z-axis scale indicates [PI(4,5)P2] in mol%. A pseudo-coloring scheme with red and blue representing the highest (1.5 mol%) and the lowest (0 mol%) concentration, respectively, is used to illustrate the spatial [PI(4,5)P2] heterogeneity. Scale bars indicate 10 μm. D, dual color single-molecule tracking of EGFP-PLCδ-PH and SNAP-TMR-labeled TβRI at the PM of HeLa cells. Time courses of the half-life of colocalization for SNAP-TMR-labeled TβRI and EGFP-PLCδ-PH after 10 ng/ml TGF-β stimulation were determined with (orange) and without (blue) PI(4,5)P2 depletion. Data points indicate average ±S.D. (n = 10 cells). E, time courses of the half-life of colocalization for SNAP-TMR-labeled TβRI and EGFP-Smad2 determined by dual color single-molecule tracking analysis. Colocalization of TβRI with EGFP-Smad2-WT (blue), -K420A (green), -W422A (orange), E425K (red), Y426A (cyan), and -R427A/R428A (black) transfected into HeLa cells whose endogenous Smad2 was suppressed by siRNA is shown. For EGFP-Smad2-WT, the effect of PI(4,5)P2 depletion (purple) was measured. Data points indicate average ±S.D. (n = 10 cells). […] TEXT PRINTED IN THE PICTURE: (C) PI(4,5)P2: [PI(4,5)P2] = 1.05 ± 0.20 mol% (HeLa unstimulated); [PI(4,5)P2] = 1.00 ± 0.40 mol% (HeLa 5 min after TGFβ); [PI(4,5)P2] = 0.16 ± 0.08 mol% (HeLa After PI(4,5)P2 depletion) DOUBTS OF THE COPYIST ABOUT THIS PICTURE: Panel C: the printed values are measured membrane concentrations of PI(4,5)P2 in HeLa cells under three conditions, not an activity or property of a compound; it is uncertain whether they count as a result for a substance
Quantitative TIRF microscopy imaging of PM localization of EGFP tagged Smad2 WT and mutants was performed using custom-built internal reflection fluorescence microscope. WT HeLa cells or PI(4,5)P2 depleted HeLa cells were plated on the 8-well chambered cover glass (Lab-Tek, Thermo Fisher Scientific) at the density of 1 × 10^5 for 24 h. Endogenous Smad2 was suppressed using SiRNA and EGFP-Smad2 or mutants were transfected into cells using the jetPRIME system (Polyplus-transfection) according to the manufacturer's protocols. The transfected HeLa cells were serum starved for 16 h prior imaging. PM-bound EGFP-Smad2 fraction was monitored before and after stimulation with 10 ng/ml TGF-β up to 15 min. For EGFP-Smad2 WT, the effect of TβRI inhibition was monitored by incubating cells with 10 μM of SB-431542 for 36 h. Image analysis was performed using Image J software. Mean intensity of the EGFP-Smad2 signal was calculated for each time point, and final graph was plot by subtracting the mean intensity at 0 min from the mean intensity of each time point. More than ten cells were analyzed for each data point.

B1: Smad2-W422A: W422A mutant of full-length Smad2; specific PI(4,5)P2 binding-compromised (protein)
chain: MSSILPFTPPVVKRLLGWKKSAGGSGGAGGGEQNGQEEKWCEKAVKSLVKKLKKTGRLDELEKAITTQNCNTKCVTIPSTCSEIWGLSTANTVDQWDTTGLYSFSEQTRSLDGRLQVSHRKGLPHVIYCRLWRWPDLHSHHELKAIENCEYAFNLKKDEVCVNPYHYQRVETPVLPPVLVPRHTEILTELPPLDDYTHSIPENTNFPAGIEPQSNYIPETPPPGYISEDGETSDQQLNQSMDTGSPAELSPTTLSPVNHSLDLQPVTYSEPAFWCSIAYYELNQRVGETFHASQPSLTVDGFTDPSNSERFCLGLLSNVNRNATVEMTRRHIGRGVRLYYIGGEVFAECLSDSAIFVQSPNCNQRYGWHPATVCKIPPGCNLKIFNNQEFAALLAQSVNQGFEAVYQLTRMCTIRMSFVKGAGAEYRRQTVTSTPCWIELHLNGPLQWLDKVLTQMGSPSVRCSSMS
modifications: left off: His6, N-terminal, state not stated
Consider B1, for which the “PM localization after TGF-β stimulation” value (10 ng/ml TGF-β) is listed as “little PM localization”.

B2: Smad2-K420A: K420A mutant of full-length Smad2; predominantly TβRI binding-compromised (protein)
chain: MSSILPFTPPVVKRLLGWKKSAGGSGGAGGGEQNGQEEKWCEKAVKSLVKKLKKTGRLDELEKAITTQNCNTKCVTIPSTCSEIWGLSTANTVDQWDTTGLYSFSEQTRSLDGRLQVSHRKGLPHVIYCRLWRWPDLHSHHELKAIENCEYAFNLKKDEVCVNPYHYQRVETPVLPPVLVPRHTEILTELPPLDDYTHSIPENTNFPAGIEPQSNYIPETPPPGYISEDGETSDQQLNQSMDTGSPAELSPTTLSPVNHSLDLQPVTYSEPAFWCSIAYYELNQRVGETFHASQPSLTVDGFTDPSNSERFCLGLLSNVNRNATVEMTRRHIGRGVRLYYIGGEVFAECLSDSAIFVQSPNCNQRYGWHPATVCKIPPGCNLKIFNNQEFAALLAQSVNQGFEAVYQLTRMCTIRMSFVAGWGAEYRRQTVTSTPCWIELHLNGPLQWLDKVLTQMGSPSVRCSSMS
modifications: left off: His6, N-terminal, state not stated
Consider B2, for which the “PM localization after TGF-β stimulation” value (10 ng/ml TGF-β) is “able to migrate to the PM as fast as WT”. Besides, the “PM residence / dissociation of Smad2” value (HeLa cells, 10 ng/ml TGF-β, SB-431542 10 μM for 36 h where used) is “slow dissociation”.

B3: Smad2 WT: bacterially expressed full-length Smad2 wild-type (protein)
chain: MSSILPFTPPVVKRLLGWKKSAGGSGGAGGGEQNGQEEKWCEKAVKSLVKKLKKTGRLDELEKAITTQNCNTKCVTIPSTCSEIWGLSTANTVDQWDTTGLYSFSEQTRSLDGRLQVSHRKGLPHVIYCRLWRWPDLHSHHELKAIENCEYAFNLKKDEVCVNPYHYQRVETPVLPPVLVPRHTEILTELPPLDDYTHSIPENTNFPAGIEPQSNYIPETPPPGYISEDGETSDQQLNQSMDTGSPAELSPTTLSPVNHSLDLQPVTYSEPAFWCSIAYYELNQRVGETFHASQPSLTVDGFTDPSNSERFCLGLLSNVNRNATVEMTRRHIGRGVRLYYIGGEVFAECLSDSAIFVQSPNCNQRYGWHPATVCKIPPGCNLKIFNNQEFAALLAQSVNQGFEAVYQLTRMCTIRMSFVKGWGAEYRRQTVTSTPCWIELHLNGPLQWLDKVLTQMGSPSVRCSSMS
modifications: left off: His6, N-terminal, state not stated
notes: bacterially expressed full-length Smad2 wild-type
As to B3, for the setting “HeLa cells, 10 ng/ml TGF-β”, the “time of peak PM translocation after TGF-β stimulation” value amounted to 5 min. Further, the “PM translocation after PI(4,5)P2 depletion” value (HeLa cells, rapamycin-induced Inp54 recruitment) was “abrogated”.

B4: EGFP-Smad2 WT: mouse EGFP-Smad2 wild type transfected into HeLa cells (protein, UniProt Q62432 2-467, looked up)
Mothers against …: SSILPFTPPVVKRLLGWKKSAGGSGGAGGGEQNGQEEKWCEKAVKSLVKKLKKTGRLDELEKAITTQNCNTKCVTIPSTCSEIWGLSTANTVDQWDTTGLYSFSEQTRSLDGRLQVSHRKGLPHVIYCRLWRWPDLHSHHELKAIENCEYAFNLKKDEVCVNPYHYQRVETPVLPPVLVPRHTEILTELPPLDDYTHSIPENTNFPAGIEPQSNYIPETPPPGYISEDGETSDQQLNQSMDTGSPAELSPTTLSPVNHSLDLQPVTYSEPAFWCSIAYYELNQRVGETFHASQPSLTVDGFTDPSNSERFCLGLLSNVNRNATVEMTRRHIGRGVRLYYIGGEVFAECLSDSAIFVQSPNCNQRYGWHPATVCKIPPGCNLKIFNNQEFAALLAQSVNQGFEAVYQLTRMCTIRMSFVKGWGAEYRRQTVTSTPCWIELHLNGPLQWLDKVLTQMGSPSVRCSSMS
modifications: EGFP fusion
notes: mouse EGFP-Smad2 wild type transfected into HeLa cells
With B4, the “PM localization after TGF-β stimulation” value (10 ng/ml TGF-β) is “clearly visible”.
